Drawing on patent publication US7429481, this text covers mean fluorescence for 1 substance.

Assay [1] concerns the target human Her2/neu receptor (human) (UniProt P04626). The assay can be described thus: flow cytometry, SKBR3 cells stained with Herceptin. In general terms: Flow cytometry measures light scatter and fluorescence of single cells or particles in a stream.
Assay [2] shares this target.

Where two headings read alike, the source gives them in different places.

Regarding “Herceptin, the humanized form of 4D5 (antibody)”, the mean fluorescence in assay [1] is 401; in assay [2] it was 186.
